The labels stand for the following.
B1: psNb 1-22 (VHH)
VHH: HVQLVESGGGLVQPGGSLRLSCAASGRSFNSYLMGWFRQAPGKEREFVAWISGSPHDIIRYRDSVKDRFTISRDNAKNTVYLQMNSLKPVDTAVYYCAVGSLRVGSFSPDYWGQGTQVTVSS
B2: psNb 1-23 (VHH)
VHH: QVQLVESGGGLVQAGGSLRLSCAASGRTDSISDMGWFRQAPGKEREFVAVVGWSGGGTDYAHSVKGRFTISRDNAKNTVYLQMNSLKPEDTAVYYCAVGSLRVGSFSVEYWGQGTQVTVSS
B3: psNb 2-65 (VHH)
VHH: HVQLVESGGGLVQAGGSLRLSCAASGTISTLNAMGWYRQAPGKQRELLASISNLGTTYHADSVAGRFTISRGSAKNTVNLQMNSLKPDDTAVYYCNTRVLEGGTQIRDYWGQGTQVTVSS
B4: psNb 2-38 (VHH)
VHH: QVQLVESGGGLVQAGGSLRLSCAAAARFSTSAMGWFRQAPGKEREFVAAISWSNTNTHYADTVKGRFTISADTAKETVDLQMNSLKPEDTAVYYCVQGGWGIRQPIIVDYWGKGTQVTVSS
B5: psNb 2-34 (VHH)
VHH: HVQLVESGGGLVQAGGSLRLSCAASGRTFSRYAAGWFRQAPGKEREFVAVIEWDGDSAYYADPVKGRFTISRDNAKNTVYLQMNRLKPEDTAVYICAVGGNHYSRSKYYNLDEYDDWGQGTQVTVSS
B6: psNb 2-45 (VHH)
VHH: QVQLVESGGGLVQAGGSLRLSCTASGYDFSILAIAWYRQAPGKERELVAAISRVGSTDYADSVKGRFTISRDNTKNTVSLQMDSLKPEDTAVYYCNAGIPMTTVLSGLGFWGQGTQVTVSS
B7: psNb 2-57 (VHH)
VHH: QVQLVESGGGLVQAGGSLRLSCAVSGRTISTFGMGWFRQAPGKEREFVATITRDEDMLLYADSVKGRFTISRDTAKNMVFLQMNSLKIEDTALYYCAVRRDSSWGYSRQSTEYDYWGQGTQVTVSS
B8: psNb 2-67 (VHH)
VHH: EVQLVESGGGLVQTGGSLRLSCALSGYTFSIFPTAWFRQAPGKEREFVAGIRWNGSTRDYTEYADFVKGRFTISRDNAKNMVYLQMISLKPEDTALYYCAASDGVIDGTNANAYRYWGQGTQVTVSS
B9: psNb 1-25 (VHH)
VHH: HVQLVESGGGLVQAGGSLRLSCATSGRTFSTYRMSWFRQAPGKEREFVATIIWSVGSTHYADSVKGRFTISRDNAKNMVYLQMNSLKPEDTAVYYCAAQRSDSSSWGYEDDYDYWGQGTQVTVSS
B10: psNb 1-21 (VHH)
VHH: HVQLVESGGGLVQAGGSLRLSCAAPGRTFSTSAMGWFRQAPGKEREFVAAIDWSNTNIHYADTVKGRFTISTDTAKNTVYLQMNNLKPEDTAVYYCAQGGWGLTQPISVDYWGKGTQVTVSS
B11: psNb 2-31 (VHH)
VHH: QVQLVESGGGLVQAGESLRLSCAASKPTFRNFAAGWFRQTPGKDREFVAVIEYDGDSAYYADSVKGRFTISRDNAKNTVYLQMNRLKPGDTAVYICAIGGNHYDPSKYYTADEYDYWGQGTQVTVSS

One assay concerns the target T1, SARS-CoV-2 spike HexaPro (S) (SARS-CoV-2, Wuhan-Hu-1, UniProt P0DTC2, stabilised). Description: cryo-EM structure.
For the molecule B1, the binding result is reported as “binds”.

For B2, the binding result is given as “binds”.

Take B3: the binding result is “binds”.

Take B4: the binding result is on record as “binds”. Same read-out and setting: next, B5: “binds”; B6: “binds”. For the molecule B7, the binding result was “binds”.

The next assay has as its target T1, SARS-CoV-2 spike HexaPro (S). Description: ELISA. (In general: In an ELISA, binding on a coated surface is turned into a signal by an enzyme label.)
In the case of B8, the binding result was “binds”. Still for that read-out and setting: the value for B9 was “binds”; that for B10 was “binds”. The same measure, in the same setting: next, B11: “binds”.
